US5432156A, “Therapeutic agent for digestive tract diseases” (Nisshin Flour Milling Co., Ltd., priority 1993, dated 1995)

Assays:
[1] = tested on: male BALB/c mice; assay: Intraperitoneal administration to mice, observation of appearance; type: in vivo; details: 10 mg/kg intraperitoneally, 6 weeks age
[2] = tested on: intestinal mucosae; assay: Example 1: nutritional (trophic) effect on the intestinal mucosae of rats fed an elemental nutrition; type: in vivo, male SD rats
Protocol: An experiment was performed in male SD rats weighing 140-160 g which had been fed on standard food under light-dark condition of a cycle of 12 hours. The food which was replaced by an elemental nutrition (Elental®, Morishita-Roussel Japan) was taken ad lib., and remained unchanged until the experiment was finished. After feeding on the component nutrition for 3 days, administration of glicentin prepared as described below was started.
Gelatin was dissolved in warm water to a weight ratio of 16%, and the solution autoclaved and cooled to room temperature. To 40 ml of the gelatin solution was added a solution of 1 mg of glicentin in 10 ml of distilled water with stirring at room temperature. The mixture was divided into test tubes, freeze dried and stored for use.
The gelatin solution was subcutaneously given at a dose of 10 μg per glicentin every 12 hours for 7 days to examine a nutritional effect of glicentin on the intestinal mucosae. A similar gelatin solution containing no glicentin was given for the same period of time as a control for comparison. Twelve hours after completion of the final administration, the rats were sacrificed and subjected to removal of the small intestine in the region from the Treitz's ligamentum to the cecum. The removed small intestine was cut at the central site to separate it into the jejunum and the ileum. The lumen of each of the intestinal tracts was gently washed with an aqueous physiological saline solution. The intestinal tracts were longitudinally incised, respectively, and tissues were removed of a portion of the jejunum in proximity to the duodenum, a portion of the ileum in proximity to the cecum and a portion around the boundary between the jejunum and the ileum and fixed in a 3.7% formalin solution as the proximal, distal and middle sites of the small intestine, respectively. Mucosae were collected by ablation with a spatula from the remainder of the intestinal tracts and weighed, respectively.
The tissues fixed in the formalin solution were embedded in paraffin to form a preparation which was stained with hematoxylin-eosin and measured for height of the villi using an optical microscope.

[3] = tested on: intestinal mucosa; assay: Example 2: weight of intestinal mucosa in rats, glicentin compared with related peptides; type: in vivo; details: 1 nmol per rat s.c.
[4] = tested on: motility of the digestive tracts; assay: Example 3: motility of the digestive tracts after meal in dogs (strain gauge transducers); type: in vivo, hybrid dogs
Protocol: An experiment was performed as described below in order to examine the action of glicentin on a motility of the digestive tracts after meal.
Six hybrid dogs weighing 16-18 kg were sutured with strain gauge transducers (manufactured by Star Medical, F121S) at a site of the gastric antrum 4 cm from the pyloric ring, a site of the duodenum for the main incurrent pancreatic duct and a site of the jejunum 10 cm from the Treitz's ligamentum, respectively, to measure the contractile force intensity of the circular muscle. Recovery period for the suture was 2 weeks.
Three of the 6 dogs were intravenously given over 1 hour 15 ml of a physiological saline solution in which 400 pmol of glicentin had been dissolved per kg of bodyweight. The remaining three received an aqueous physiological solution containing no glicentin in the same way as above as a control for comparison. The dogs were fed on 15 g of a solid diet (SD®, manufactured by Oriental Yeast K.K.) and 15 g of Vitaone® (manufactured by Nihon Pet Food K.K. and Kyodo Shiryo K.K.) per kg of bodyweight simultaneously with the intravenous administration.
Then, the motor activity of the digestive tracts and length of the post-feed period were measured. Intensity of the contraction in the post-feed period was integrated for the two-hour measurements and evaluated in comparison with the mean level of the signal peak in phase 3 motor activity of the intestinal tracts in hunger and taken as a motor index.

[5] = 10 μg s.c. every 12 hours for 7 days
[6] = 10 μg s.c. every 12 hours for 7 days, hematoxylin-eosin, optical microscope
[7] = 400 pmol/kg i.v. over 1 hour, post-feed contraction integrated over two hours, relative to phase 3 peak in hunger
[8] = 400 pmol/kg i.v., versus control

B1: glicentin (protein)
chain: RSLQDTEEKSRSFSASQADPLSDPDQMNEDKRHSQGTFTSDYSKYLDSRRAQDFVQWLMNTKRNRNNIA
notes: peptide of 69 amino acid residues, one of the enteroglucagons; human glicentin prepared by genetic engineering procedure
change in appearance [1]: no change in appearance is observed
Ileal mucosal weight [2, 5]: 1.04 g
Ileal mucosal weight per 100 g bodyweight [2, 5]: 0.57 g/100 g bodyweight
Jejunal mucosal weight [2, 5]: 1.3 g
Jejunal mucosal weight per 100 g bodyweight [2, 5]: 0.75 g/100 g bodyweight
Length of small intestine [2, 5]: 107.0 cm
Length of small intestine per 100 g bodyweight [2, 5]: 66.4 cm/100 g bodyweight
Whole small intestinal mucosal weight [2, 5]: 2.38 g
Whole small intestinal mucosal weight per 100 g bodyweight [2, 5]: 1.32 g/100 g bodyweight
Villous height in distal intestine [2, 6]: 216 ± 8.4 μm
Villous height in middle intestine [2, 6]: 354 ± 7.5 μm
Villous height in proximal intestine [2, 6]: 546 ± 18.6 μm
effect on ileal mucosa (in words) ([2]; versus control group): tendency to increase
effect on jejunal mucosal weight (in words) ([2]; versus control group): significantly increases
effect on length of the small intestine (in words) ([2]; versus control group): tendency to increase
effect on whole small intestinal mucosal weight including jejunum and ileum (in words) ([2]; versus control group): significantly increases
effect on the weight of intestinal mucosa (in words) ([3]; versus control group): significantly increases
Intestinal mucosal weight ([3]; third quarter of the small intestine from the duodenum): 0.614 ± 0.025 g
Length of post-feed period ([4]; 400 pmol/kg i.v. over 1 hour, given with feeding): 13.6 ± 1.0 h
Motor index, duodenum [4, 7]: 0.675 ± 0.4
Motor index, jejunum [4, 7]: 1.087 ± 0.2
Motor index, stomach vestibulum [4, 7]: 0.878 ± 0.1
influence upon the length of the post-feed period (in words) [4, 8]: no influence
post-feed motility in the vestibulum of stomach (in words) [4, 8]: inhibited
